Laboratory results: patent publication US20240399042A1

Assays:
[1] = molecular target: Ebola-Zaire-sGP: Soluble glycoprotein (sGP) released from infected cells (Ebola, species Zaire ebolavirus) (UniProt P60170)
Sequence of Ebola-Zaire-sGP: Soluble glycoprotein (sGP) released from infected cells (Ebola, species Zaire ebolavirus) (P60170 33-324 limits assumed): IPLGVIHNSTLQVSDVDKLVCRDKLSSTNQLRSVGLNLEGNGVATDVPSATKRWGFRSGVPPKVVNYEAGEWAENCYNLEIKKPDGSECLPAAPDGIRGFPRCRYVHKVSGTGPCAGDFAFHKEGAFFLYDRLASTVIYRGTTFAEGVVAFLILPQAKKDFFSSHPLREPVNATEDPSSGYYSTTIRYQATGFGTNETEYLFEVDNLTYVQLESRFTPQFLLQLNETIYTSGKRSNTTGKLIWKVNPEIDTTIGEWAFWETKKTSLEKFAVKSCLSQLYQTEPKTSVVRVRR

Sequence of Galanthus nivalis agglutinin (GNA) (P30617 24-128 limits assumed): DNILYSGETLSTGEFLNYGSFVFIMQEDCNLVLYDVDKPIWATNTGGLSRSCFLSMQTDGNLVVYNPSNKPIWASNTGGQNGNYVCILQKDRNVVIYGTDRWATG

Galanthus nivalis agglutinin (GNA) (from UniProt P30617 24-128)
% Removal at 6 hours [1]: 97%
% Removal (run of 3 hours) (Marburg-GP (Marburg)): 60%
